Laboratory results: US20230051715A1 (MABWELL THERAPEUTICS, published 2023)

T1: C1s in normal cynomolgus monkey serum (CMS, CompTech NCYS) (cynomolgus monkey, UniProt A0A2K5VQX9 16-685)
T1 sequence: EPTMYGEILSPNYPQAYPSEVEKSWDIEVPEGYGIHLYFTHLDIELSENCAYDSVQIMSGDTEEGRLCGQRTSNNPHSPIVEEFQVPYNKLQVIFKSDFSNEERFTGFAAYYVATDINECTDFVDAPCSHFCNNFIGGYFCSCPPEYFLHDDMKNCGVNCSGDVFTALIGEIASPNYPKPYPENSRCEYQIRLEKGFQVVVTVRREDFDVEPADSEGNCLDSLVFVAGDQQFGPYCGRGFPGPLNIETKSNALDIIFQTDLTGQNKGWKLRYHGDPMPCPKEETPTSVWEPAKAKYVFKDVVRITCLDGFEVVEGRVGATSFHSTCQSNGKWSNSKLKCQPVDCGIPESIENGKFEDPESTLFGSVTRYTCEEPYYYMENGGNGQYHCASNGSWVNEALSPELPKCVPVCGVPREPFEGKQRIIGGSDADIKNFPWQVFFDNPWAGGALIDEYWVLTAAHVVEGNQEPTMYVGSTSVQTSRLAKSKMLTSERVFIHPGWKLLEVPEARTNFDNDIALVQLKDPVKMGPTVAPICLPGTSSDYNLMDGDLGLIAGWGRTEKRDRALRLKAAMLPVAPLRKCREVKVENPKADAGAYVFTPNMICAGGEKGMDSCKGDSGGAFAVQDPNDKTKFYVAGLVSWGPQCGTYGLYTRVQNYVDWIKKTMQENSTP

T2: human C1s mutant M13 (A292D) (human, UniProt P09871 16-688)
T2 construct: The entry is the mutant itself
T2 sequence: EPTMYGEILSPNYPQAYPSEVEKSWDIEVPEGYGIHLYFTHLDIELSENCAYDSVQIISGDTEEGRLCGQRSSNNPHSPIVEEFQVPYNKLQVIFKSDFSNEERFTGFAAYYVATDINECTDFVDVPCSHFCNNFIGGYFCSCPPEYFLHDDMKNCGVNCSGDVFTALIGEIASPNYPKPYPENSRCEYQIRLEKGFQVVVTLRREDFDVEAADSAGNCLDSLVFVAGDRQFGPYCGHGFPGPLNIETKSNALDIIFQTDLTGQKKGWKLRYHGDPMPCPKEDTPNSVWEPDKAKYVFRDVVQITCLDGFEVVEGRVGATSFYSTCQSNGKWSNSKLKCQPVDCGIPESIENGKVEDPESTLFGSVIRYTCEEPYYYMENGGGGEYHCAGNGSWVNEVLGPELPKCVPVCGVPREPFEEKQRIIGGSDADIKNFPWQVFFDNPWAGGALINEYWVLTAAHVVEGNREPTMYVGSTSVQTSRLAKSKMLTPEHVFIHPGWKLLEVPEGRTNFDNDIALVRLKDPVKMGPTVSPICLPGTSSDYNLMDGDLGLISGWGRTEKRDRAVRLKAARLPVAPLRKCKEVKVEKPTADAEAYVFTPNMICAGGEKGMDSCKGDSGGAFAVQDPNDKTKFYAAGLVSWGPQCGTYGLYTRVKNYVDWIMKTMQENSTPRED

T3: human C1s mutant M3 (M277I, P278S & N329D) (human, UniProt P09871 16-688)
T3 construct: The entry is the mutant itself
T3 sequence: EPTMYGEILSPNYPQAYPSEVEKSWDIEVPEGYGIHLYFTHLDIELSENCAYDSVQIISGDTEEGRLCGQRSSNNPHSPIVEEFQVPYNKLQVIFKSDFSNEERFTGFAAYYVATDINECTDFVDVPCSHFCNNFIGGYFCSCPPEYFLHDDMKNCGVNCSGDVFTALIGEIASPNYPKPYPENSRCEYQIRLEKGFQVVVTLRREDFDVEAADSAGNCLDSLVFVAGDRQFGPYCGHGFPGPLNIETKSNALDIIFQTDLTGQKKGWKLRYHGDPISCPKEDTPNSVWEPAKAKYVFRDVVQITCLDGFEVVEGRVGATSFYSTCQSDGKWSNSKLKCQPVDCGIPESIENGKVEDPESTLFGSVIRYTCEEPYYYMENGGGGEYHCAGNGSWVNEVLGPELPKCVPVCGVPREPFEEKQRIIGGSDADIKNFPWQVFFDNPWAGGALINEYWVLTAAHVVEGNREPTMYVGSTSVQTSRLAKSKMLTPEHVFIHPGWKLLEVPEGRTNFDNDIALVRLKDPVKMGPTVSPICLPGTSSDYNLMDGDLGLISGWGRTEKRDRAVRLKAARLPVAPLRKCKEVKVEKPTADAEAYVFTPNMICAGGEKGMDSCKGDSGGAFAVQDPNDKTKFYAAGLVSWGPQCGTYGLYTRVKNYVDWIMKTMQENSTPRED


Key:
[1] = target: T1, C1s in normal cynomolgus monkey serum …; experiment: cell-based or functional assay
[2] = target: T2, human C1s mutant M13 (A292D); experiment: ELISA, plate coated with human C1s mutant M13: A292D, OD450nm
Experimental: (§1) ELISA was carried out by first coating 96-well plates with 200 ng/well of full-length or truncated C1s proteins overnight. The next morning, plates were blocked with SuperBlock T20 blocking buffer (Thermo Scientific 37536) for 1 h with gentle shaking. Then, various concentrations of anti-C1s antibodies diluted in SuperBlock T20 blocking buffer were added to the plates and incubated for 1 h with gentle shaking. Mouse IgG (Sigma-Aldrich 15381) and human IgG1 (BioXCell BP0297) were used as negative controls. The plates were washed before incubating with HRP conjugated secondary antibodies diluted in SuperBlock T20 blocking buffer (goat anti-mouse IgG (H+L) cross-adsorbed secondary antibody HRP (Invitrogen G-21040) or goat anti-human IgG antibody, HRP conjugate (Millipore AP309P)) for 1 h with gentle shaking. At last, the plates were washed and color developed with ELISA liquid HRP substrate (Sigma-Aldrich), followed by stopping the reaction with addition of 1M H₂SO₄ in the same volume as the ELISA liquid substrate. Bound antibody was measured by absorbance at OD₄₅₀ₙₘ.
(§2) Binding of anti-C1s antibodies to mutants M1-M20 of human C1s was measured by ELISA as described in Example 4, and results are shown in FIGS. 6B-6U. All anti-C1s humanized variants including hz2-7(H1L2), hz2-8(H1L2 G80A) and hz2-8(H1L2 G80A/T82A) maintained strong binding properties to the majority (16 out of 20) of C1s mutants including M1 (FIG. 6B), M2 (FIG. 6C), M3 (FIG. 6D). M4 (FIG. 6E), M7 (FIG. 6H), M8 (FIG. 6I), M10 (FIG. 6K), M11 (FIG. 6L), M12 (FIG. 6M), M13 (FIG. 6N), M15 (FIG. 6P), M16 (FIG. 6Q), M17 (FIG. 6R), M18 (FIG. 6S), M19 (FIG. 6T) and M20 (FIG. 6U).

[3] = target: T3, human C1s mutant M3 (M277I, P278S & …); experiment: ELISA, plate coated with human C1s mutant M3: M277I, P278S, N329D, OD450nm
Experimental: as §1, §2

| Binder | IC50, inhibition of IgM-induced C4 deposition from CMS [1] [µg/mL] | EC50 [2] [µg/mL] | EC50 [3] [µg/mL] | IC50, inhibition of IgM-induced C4 deposition from cynomolgus monkey serum [1] [µg/mL] | IC50, inhibition of cynomolgus monkey complement-mediated lysis of EA [1] [µg/mL] |
| --- | --- | --- | --- | --- | --- |
| Anti-C1s antibody hz2-8 (H1L2 G80A) (antibody, V domains shown, Humanized variant with G80A in HC CDR2 (already in the entry), human IgG1 / kappa) VH: QVQLVQSGAEVKKPGASVKVSCKASGFNIKEYYMHWVRQAPEQGLEWMGWIDPENADTIYAQKFQGRVTITADTSTNTAYMELSSLRSEDTAVYYCARSRLFFAYWGQGTLVTVSS VL: DIQMTQSPKSLSASVGDRVTITCRASQDVRTALDWYQQKPGQSPKLLIYSASYRYSGVPSRFSGSGSGTDFTLTISSLQPEDFATYYCQQQYTTPYTFGQGTKLEIKR | 0.5 | 0.006 | 0.006 |  |  |
| Anti-C1s antibody hz2-8 (H1L2 G80A/T82A) (antibody, V domains shown, Humanized variant with G80A and T82A in HC CDR2 (already in the entry), human IgG1 / kappa) VH: QVQLVQSGAEVKKPGASVKVSCKASGFNIKEYYMHWVRQAPEQGLEWMGWIDPENADAIYAQKFQGRVTITADTSTNTAYMELSSLRSEDTAVYYCARSRLFFAYWGQGTLVTVSS VL: DIQMTQSPKSLSASVGDRVTITCRASQDVRTALDWYQQKPGQSPKLLIYSASYRYSGVPSRFSGSGSGTDFTLTISSLQPEDFATYYCQQQYTTPYTFGQGTKLEIKR | 0.4 | 0.009 | 0.004 |  |  |
| Anti-C1s antibody 2-8 (antibody, V domains shown, the HC/LC entries may hold it too; also called clone 2-8) VH: EVQLQQSGAELVRPGALVKLSCKASGFNIKEYYMHWVKQRPEQGLEWIGWIDPENGDTIYDPKFQGKASITADTSSNTAYLQLSSLTSEDTAVYYCARSRLFFAYWGQGTLVTVSA VL: DIVMTQSHKFMSTSVGDRVSFTCKASQDVRTAVDWYQQKPGQSPKLLIYSASYRYTGVPDRFTGTGSGTDFTFTISSVQAEDLAVYFCQQQYTTPYTFGGGTKLEIKT |  |  |  | ~0.5 |  |
| Anti-C1s antibody 2-7 (antibody, human IgG1, kappa, V domains shown, the HC/LC entries may hold it too; also called clone 2-7) VH: EVKLEESGGGLVPPGGSMKLSCVASGFTFSNYFMNWVRQSPEKGLEWVAEIRLKFTNYATHYAESVEGRFTISRDDSKSSVYLQMNNLRAEDTGIYYCTRDYGSRNGYFDYWGQGTTLTVSS VL: DIVMTQAAPSVPVTPGESVSISCRSSKSLLHSNGNTFLYWFLQRPGQSPQLLIYRMSNLASGVPDRFSGSGSGTAFTLRVSRVEAEDVGIYYCMQHLEYPYTFGGGTKLEIKT |  |  |  | ~0.3 |  |
| Anti-C1s antibody hz2-7(H1L2) (antibody, V domains shown, Humanized, human IgG1 / kappa; also called hz2-7(1L2)) VH: EVQLLESGGGLVQPGGSLRLSCAASGFTFSNYFMNWVRQAPGKGLEWVSEIRLKFTNYATHYADSVKGRFTISRDDSKSTLYLQMNSLRAEDTAVYYCTRDYGSRNGYFDYWGQGTLVTVSS VL: DIVMTQTPLSLPVTPGEPASISCRSSKSLLHSNGNTFLYWFLQKPGQSPQLLIYRMSNLASGVPDRFSGSGSGTDFTLKISRVEAEDVGVYYCMQHLEYPYTFGGGTKLEIKR | 0.9 | 0.005 | 0.008 |  | 0.8 |
